Experimental data taken from patent US20230340137A1 (published 2023).

Target: T1, B-cell maturation antigen (BCMA) (human, UniProt Q02223 1-184)
T1 sequence (looked up): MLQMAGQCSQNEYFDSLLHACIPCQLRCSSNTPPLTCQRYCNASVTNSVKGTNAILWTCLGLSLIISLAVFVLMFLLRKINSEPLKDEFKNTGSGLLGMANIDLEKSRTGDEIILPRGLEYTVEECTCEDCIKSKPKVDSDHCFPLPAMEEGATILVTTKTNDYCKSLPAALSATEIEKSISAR
Experiment: cell-based or functional assay

B1: PF-06863135 (bispecific antibody, human IgG2)
heavy 1: EVQLLESGGGLVQPGGSLRLSCAASGFTFSSYPMSWVRQAPGKGLEWVSAIGGSGGSLPYADIVKGRFTISRDNSKNTLYLQMNSLRAEDTAVYYCARYWPMDIWGQGTLVTVSSASTKGPSVFPLAPCSRSTSESTAALGCLVKDYFPEPVTVSWNSGALTSGVHTFPAVLQSSGLYSLSSVVTVPSSNFGTQTYTCNVDHKPSNTKVDKTVERKCEVECPECPAPPVAGPSVFLFPPKPKDTLMISRTPEVTCVVVAVSHEDPEVQFNWYVDGVEVHNAKTKPREEQFNSTFRVVSVLTVVHQDWLNGKEYKCKVSNKGLPSSIEKTISKTKGQPREPQVYTLPPSREEMTKNQVSLTCEVKGFYPSDIAVEWESNGQPENNYKTTPPMLDSDGSFFLYSKLTVDKSRWQQGNVFSCSVMHEALHNHYTQKSLSLSPGK
light 1: EIVLTQSPGTLSLSPGERATLSCRASQSVSSSYLAWYQQKPGQAPRLLMYDASIRATGIPDRFSGSGSGTDFTLTISRLEPEDFAVYYCQQYQSWPLTFGQGTKVEIKRTVAAPSVFIFPPSDEQLKSGTASVVCLLNNFYPREAKVQWKVDNALQSGNSQESVTEQDSKDSTYSLSSTLTLSKADYEKHKVYACEVTHQGLSSPVTKSFNRGEC
heavy 2: EVQLVESGGGLVQPGGSLRLSCAASGFTFSDYYMTWVRQAPGKGLEWVAFIRNRARGYTSDHNPSVKGRFTISRDNAKNSLYLQMNSLRAEDTAVYYCARDRPSYYVLDYWGQGTTVTVSSASTKGPSVFPLAPCSRSTSESTAALGCLVKDYFPEPVTVSWNSGALTSGVHTFPAVLQSSGLYSLSSVVTVPSSNFGTQTYTCNVDHKPSNTKVDKTVERKCRVRCPRCPAPPVAGPSVFLFPPKPKDTLMISRTPEVTCVVVAVSHEDPEVQFNWYVDGVEVHNAKTKPREEQFNSTFRVVSVLTVVHQDWLNGKEYKCKVSNKGLPSSIEKTISKTKGQPREPQVYTLPPSREEMTKNQVSLTCLVKGFYPSDIAVEWESNGQPENNYKTTPPMLDSDGSFFLYSRLTVDKSRWQQGNVFSCSVMHEALHNHYTQKSLSLSPGK
light 2: not shown
- EC50 of cell viability (killing) of H929-Luc cells co-cultured with human CD3+ T cells, 72 hr, luminescence; with GSI: 5.5 pM
- EC50 of cell viability (killing) of H929-Luc cells co-cultured with human CD3+ T cells, 72 hr, luminescence; without GSI: 167 pM
- EC50 of cell viability (killing) of Molp8-Luc cells co-cultured with human CD3+ T cells, 72 hr, luminescence; with GSI: 20.2 pM
- EC50 of cell viability (killing) of Molp8-Luc cells co-cultured with human CD3+ T cells, 72 hr, luminescence; without GSI: 108 pM
- EC50 of cell viability (killing) of OPM2-Luc cells co-cultured with human CD3+ T cells, 72 hr, luminescence; with GSI: 3.3 pM
- EC50 of cell viability (killing) of OPM2-Luc cells co-cultured with human CD3+ T cells, 72 hr, luminescence; without GSI: 52.8 pM
- EC50 of cell viability (killing) of RPMI8226-Luc cells co-cultured with human CD3+ T cells, 72 hr, luminescence; with GSI: 1.7 pM
- EC50 of cell viability (killing) of RPMI8226-Luc cells co-cultured with human CD3+ T cells, 72 hr, luminescence; without GSI: 9.2 pM
